Measured values from US20240043859A1, “HERBICIDE-RESISTANT PROTEIN, AND GENE AND USE THEREOF” (QINGDAO KINGAGROOT CHEMICAL COMPOUND CO., LTD., priority 2020, published 2024).
“Also recorded” adds a separate entry of the source.

B1: QYD43: AAD-like enzyme, SEQ ID NO. 85 (protein)
chain: MRRLHIAPTGATLGATVTGVSLAALDEPTWQAIYRAWLEHALLIFPGQHLSNQQQIGFARRFGAIERIGGGEIVAISNVKADGRVRAHTPAEWDDMMKVIVGNMAWHADSTYMPVMAKGAVFSGELVPTERGETSFADMRAAYDALDQATRALVHQRSAHHSLVYSQSKLGHVPGAQSAYLGYGMDQTTAPLRPLVKVHPETGRQSLLIGRHAHAIPGMDPAESEVFLEGLVEWACQPPRIHTHHWTAGDVVLWDNRCLLHRAMPWDLAQPRVMWHSRLAGDPVAEAALPPVAPAAATH
modifications: Synthetic polypeptide, QYD43, D43
B2: QYD49: AAD-like enzyme, SEQ ID NO. 97 (protein)
chain: MARTFDIEPLAGTTFGAVVRGMKVAILDDAGWRDLYAAWLKYALLVFPGQHLKRDEQIAFAKRFGALEFEMAALSNVKSDGTLRQEKDNDDMMKILKGNMGWHADSTYMPVQAKGAVFSAEIVPGAGGQTGFADMRAAYDALDAGRKAKVERLAAHHSLHYSQSKLGHQTKKQDGEYSGYGLHDGPVPLRPLVKTHPETGRKSLLIGRHAHNIPGMDKAESERLLQELVDFACQPPRVYHHDWTAGDAVVWDNRCLLHQATPWDMTQPRVMWHSRIAGDPRSEAALGVTAVSAAASG
modifications: Synthetic polypeptide, QYD49, D49
B3: QYD44: AAD-like enzyme, SEQ ID NO. 87 (protein)
chain: MARAFDIAPLDATFGAVVTGVKLAEVDDAGWCDLHAAWLEHALLVFPDQHLTRAQQIAFARRFGPLEFEMAAISNVRPDGSLRVESDNDDMMKILKGNMGWHADSTYMPVQAKGAVFSAEVVPGSGGQTGFADMRAAYDALDENLKARVETLQARHSLHYSQSKLGHETKTADGEYSGYGLHDGPVPLRPLVKVHPETGRKSLLIGRHAHAIPGMERAESERLLQQLIDFACQPPRVYHHDWAPGDAVLWDNRCLLHQATPWDMTQKRIMWHSRIAGDPASETALAGAGP
modifications: Synthetic polypeptide, QYD44, D44
B4: QYD46: AAD-like enzyme, SEQ ID NO. 91 (protein)
chain: MARAFYITPLDATFGAVVTGVKLVDLDDAGWRELHAAWLQYALLVFPGQYLKRDQQIAFARRFGPLEFEMVAISNVRSDGTLRVEKDNDDVMKILKGNMGWHADSTYMPVQAKGAVFSAEVVPTIGGHTGFADMRAAYDALDDVRKARVENLQARHSLHYSQSKLGHETKKSDGEYHGYGLHDGPVPLRPLVKTHPETGRKSLLIGRHAHAIPGMDGPESEAFLQELIDFACQPPRIYHHDWAAGDAVLWDNRCLLHQATPWDMTQKRIMWHSRIAGDPASESALAH
modifications: Synthetic polypeptide, QYD46, D46
B5: QYD45: AAD-like enzyme, SEQ ID NO. 89 (protein)
chain: MARPFDIAPLDATFGAIVTGVKLAGLDEACWRALHAAWLQYALLVFPNQHLARVEQIAFAKRFGPLEFEMAAISNVRADGSLRVETDNDDMMKILKGNMGWHADSTYMPVQAKGAVFSAEVVPTIGGQTGFADMRAAYDALDEDLKARVETLQAYHSLHYSQSRLGHETKKADGEYSGYGLHDGPVPLRPLVKTHPETGRKSLLIGRHAHAIPGMEPGESERFLQELIDFACQPPRVYRHNWAPGDAVLWDNRCLLHQATPWDMTQKRIMWHSRIAGDAAGETALAH
modifications: Synthetic polypeptide, QYD45, D45
B6: QYD47: AAD-like enzyme, SEQ ID NO. 93 (protein)
chain: MATRLEIKPLDATFGAVVTGIKLAEIDEATWRELHATWLKYALLVFPGQFLKRDQQIAFAKHFGPLEFEMAAISNVKSDGTLRIEKDNDDVMKILKGNMGWHADSTYMPVQAKGAVFSAEEVPTVGGQTGWADMRAAYDALDDARRARVETLQAYHSLHYSQSKLGHETRKSDGEYSGYGLHNGPIPLRPLVKTHPETGRKSLLIGRHAHDIPGMDREESQSFLEELVDFACRPPRIYHHDWAAGDAVVWDNRCLLHQATPWDMTQRRIMWHSRIAGDPASESALAA
modifications: Synthetic polypeptide, QYD47, D47

Key:
Arabidopsis thaliana [1] = experiment: Herbicide resistance of transgenic Arabidopsis thaliana seedlings on plate medium (root growth); format: in vivo; conditions: for Resistance of transgenic Arabidopsis thaliana: 2,4-D / Resistance of transgenic Arabidopsis thaliana: MCPA: Arabidopsis overexpressing the gene
In short: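 After 3 days of cold treatment at 4 °C, seeds were cultured at 22 °C under a 16 h/8 h light cycle on MS herbicide medium (0.3 μM 2,4-D in the screen). Root growth was scored against wild-type seedlings at one week. The material was T2 AAD-overexpressing lines (AtUbi10 promoter, MAS terminator, hygromycin marker), two events each, tested with 2,4-D, 2,4-DB sodium and MCPA.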

Arabidopsis thaliana [2] = experiment: as above; format: in vivo; conditions: plate medium with 2,4-D (0.3 μmol)
[3] = Chromogenic reaction of degrading herbicides in bacteria: triclopyr; format: cell-based, Escherichia coli; conditions: recombinant E. coli expressing the gene
Description: To transform the plasmids to be tested, an AAD12-expressing plasmid and a blank control plasmid pET15b were respectively transformed into the protein expression E. coli BL21(DE3) strains. A monoclone was selected and inoculated in a 10 ml centrifuge tube with 3 ml LB medium, and cultivated at 37° C., 200 rpm for 6-8 hours. […] The temperature was switched to 28° C. and the cultivation continued overnight. In the next morning, 200 μL of each bacteria solution was taken and centrifuged to precipitate thallus, 180 μL of the supernatant was taken and added in a 96-well plate, and 20 μL of borate buffer of pH 10 was added. Then the mixture was added with 2 μL of 8% potassium ferricyanide and mixed well, followed by adding 2 μL of 2% 4-aminoantipyrine, and placed at room temperature for 5 min to observe the color and detect the A510 value. […]

[4] = Chromogenic reaction of degrading herbicides in bacteria: 2,4-D; format: cell-based, Escherichia coli; conditions: recombinant E. coli expressing the gene, 2,4-D added to the medium, red = phenols
In short: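 Colour from 2,4-D degradation was detected at A510 after 5 min at room temperature, with 4-aminoantipyrine and ferricyanide added to culture supernatant in pH 10 borate. Cultures were AAD12-expressing or empty-vector (pET15b) BL21(DE3), grown overnight at 28 °C with 0.5 mM 2,4-D, 0.1 mM IPTG and 2 mM α-ketoglutarate.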

[5] = format: cell-based, Escherichia coli

| Molecule | Resistance of transgenic Arabidopsis thaliana: 2,4-D (Arabidopsis thaliana [1]) | Resistance of transgenic Arabidopsis thaliana: MCPA (Arabidopsis thaliana [1]) | 2,4-D resistance of T1 generation transgenic seedlings (seminal root growth) (Arabidopsis thaliana [2]) | Chromogenic reaction of degrading herbicides in bacteria: Triclopyr [3] | Chromogenic reaction of degrading herbicides in bacteria: Triclopyr ([3]; listed as D43) | Chromogenic reaction of degrading herbicides in bacteria: 2,4-D [4] | Chromogenic reaction of degrading herbicides in bacteria: 2,4-D ([4]; listed as D43) | Chromogenic reaction of degrading herbicides in bacteria: MCPA [5] | Chromogenic reaction of degrading herbicides in bacteria: 2,4-D ([4]; listed as D49) | Chromogenic reaction of degrading herbicides in bacteria: 2,4-D ([4]; listed as D44) | Chromogenic reaction of degrading herbicides in bacteria: Triclopyr ([3]; listed as D46) | Chromogenic reaction of degrading herbicides in bacteria: 2,4-D ([4]; listed as D46) | MCPA resistance of T1 generation transgenic seedlings (Arabidopsis thaliana [1]; plate medium with MCPA (0.1 μmol)) | 2,4-DB sodium resistance of T2 generation transgenic plants (Arabidopsis thaliana [1]; plate medium, 2,4-DB sodium (0.7 μmol), two events per transformant) | MCPA resistance of T2 generation transgenic plants (Arabidopsis thaliana [1]; plate medium, MCPA (0.1 μmol), two events per transformant) | Chromogenic reaction of degrading herbicides in bacteria: 2,4-D ([4]; listed as D45) | Chromogenic reaction of degrading herbicides in bacteria: Triclopyr ([3]; listed as D47) | Chromogenic reaction of degrading herbicides in bacteria: 2,4-D ([4]; listed as D47) |
| --- | --- | --- | --- | --- | --- | --- | --- | --- | --- | --- | --- | --- | --- | --- | --- | --- | --- | --- |
| B1 | Yes | Yes | showing tolerance to 2,4-D | Yes | slight degradation | Yes | could degrade 2,4-D; also recorded: capable of degrading 2,4-D | Yes | – | – | – | – | – | – | – | – | – | – |
| B2 | Yes | Yes | showing tolerance to 2,4-D | – | – | Yes | – | Yes | could degrade 2,4-D; also recorded: capable of degrading 2,4-D | – | – | – | – | – | – | – | – | – |
| B3 | Yes | Yes | showing tolerance to 2,4-D | – | – | Yes | – | Yes | – | could degrade 2,4-D; also recorded: capable of degrading 2,4-D | – | – | – | – | – | – | – | – |
| B4 | Yes | Yes | showing tolerance to 2,4-D | Yes | – | Yes | – | Yes | – | – | slight degradation | could degrade 2,4-D; also recorded: capable of degrading 2,4-D | – | – | – | – | – | – |
| B5 | Yes | Yes | showing tolerance to 2,4-D; also recorded: lower resistance | – | – | Yes | – | Yes | – | – | – | – | obvious resistance | obvious resistance | obvious resistance | could degrade 2,4-D; also recorded: capable of degrading 2,4-D | – | – |
| B6 | Yes | Yes | showing tolerance to 2,4-D | Yes | – | Yes | – | Yes | – | – | – | – | – | – | – | – | slight degradation | could degrade 2,4-D; also recorded: capable of degrading 2,4-D |
